# Patent US20150098945A1 (Daiichi Sankyo, published 2015)
# Substitutions are numbered along the chain they refer to.
# T1: N-terminal FLAG-tagged cynomolgus monkey ROBO4, cynoROBO4-1 (pCI-FLAG-cynoROBO4-1) (cynomolgus monkey, UniProt Q8WZ75 28-1007 (human entry))
# T1 chain: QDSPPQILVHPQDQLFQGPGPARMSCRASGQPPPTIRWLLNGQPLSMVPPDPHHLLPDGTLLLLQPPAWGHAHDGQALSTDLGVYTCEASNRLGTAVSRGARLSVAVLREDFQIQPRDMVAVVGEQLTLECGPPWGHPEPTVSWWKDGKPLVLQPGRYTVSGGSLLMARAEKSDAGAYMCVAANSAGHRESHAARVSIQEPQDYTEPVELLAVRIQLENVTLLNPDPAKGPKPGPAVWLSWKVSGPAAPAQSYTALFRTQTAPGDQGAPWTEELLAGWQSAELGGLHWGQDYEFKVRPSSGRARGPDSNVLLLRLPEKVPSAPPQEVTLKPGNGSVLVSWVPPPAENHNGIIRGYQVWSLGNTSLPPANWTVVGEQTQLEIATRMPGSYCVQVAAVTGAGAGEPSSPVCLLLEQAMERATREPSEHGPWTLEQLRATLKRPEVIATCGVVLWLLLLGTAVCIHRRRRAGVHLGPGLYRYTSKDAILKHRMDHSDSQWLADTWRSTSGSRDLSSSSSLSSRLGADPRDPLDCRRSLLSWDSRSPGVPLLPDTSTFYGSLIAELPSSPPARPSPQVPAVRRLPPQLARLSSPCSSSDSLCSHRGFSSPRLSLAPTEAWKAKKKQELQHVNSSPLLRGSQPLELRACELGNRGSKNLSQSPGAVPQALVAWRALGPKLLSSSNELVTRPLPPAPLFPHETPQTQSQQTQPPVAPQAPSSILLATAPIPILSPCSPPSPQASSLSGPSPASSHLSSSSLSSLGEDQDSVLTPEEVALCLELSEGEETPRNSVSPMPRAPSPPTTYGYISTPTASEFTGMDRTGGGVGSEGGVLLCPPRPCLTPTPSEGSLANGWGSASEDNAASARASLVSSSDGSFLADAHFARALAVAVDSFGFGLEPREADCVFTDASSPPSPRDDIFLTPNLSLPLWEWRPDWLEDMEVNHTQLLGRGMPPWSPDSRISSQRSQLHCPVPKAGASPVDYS
# T2: N-terminal FLAG-tagged cynomolgus monkey ROBO4, cynoROBO4-2 (pCI-FLAG-cynoROBO4-2) (cynomolgus monkey, UniProt Q8WZ75 28-1007 (human entry))
# T2 chain: T1 chain with W69R, A175T, H192R, P423L, P549L, P567L, F603L
# T3: mouse ROBO4 (pCI-mROBO4-transfected HEK293 cells) (mouse, UniProt Q8C310 28-1012)
# T3 sequence: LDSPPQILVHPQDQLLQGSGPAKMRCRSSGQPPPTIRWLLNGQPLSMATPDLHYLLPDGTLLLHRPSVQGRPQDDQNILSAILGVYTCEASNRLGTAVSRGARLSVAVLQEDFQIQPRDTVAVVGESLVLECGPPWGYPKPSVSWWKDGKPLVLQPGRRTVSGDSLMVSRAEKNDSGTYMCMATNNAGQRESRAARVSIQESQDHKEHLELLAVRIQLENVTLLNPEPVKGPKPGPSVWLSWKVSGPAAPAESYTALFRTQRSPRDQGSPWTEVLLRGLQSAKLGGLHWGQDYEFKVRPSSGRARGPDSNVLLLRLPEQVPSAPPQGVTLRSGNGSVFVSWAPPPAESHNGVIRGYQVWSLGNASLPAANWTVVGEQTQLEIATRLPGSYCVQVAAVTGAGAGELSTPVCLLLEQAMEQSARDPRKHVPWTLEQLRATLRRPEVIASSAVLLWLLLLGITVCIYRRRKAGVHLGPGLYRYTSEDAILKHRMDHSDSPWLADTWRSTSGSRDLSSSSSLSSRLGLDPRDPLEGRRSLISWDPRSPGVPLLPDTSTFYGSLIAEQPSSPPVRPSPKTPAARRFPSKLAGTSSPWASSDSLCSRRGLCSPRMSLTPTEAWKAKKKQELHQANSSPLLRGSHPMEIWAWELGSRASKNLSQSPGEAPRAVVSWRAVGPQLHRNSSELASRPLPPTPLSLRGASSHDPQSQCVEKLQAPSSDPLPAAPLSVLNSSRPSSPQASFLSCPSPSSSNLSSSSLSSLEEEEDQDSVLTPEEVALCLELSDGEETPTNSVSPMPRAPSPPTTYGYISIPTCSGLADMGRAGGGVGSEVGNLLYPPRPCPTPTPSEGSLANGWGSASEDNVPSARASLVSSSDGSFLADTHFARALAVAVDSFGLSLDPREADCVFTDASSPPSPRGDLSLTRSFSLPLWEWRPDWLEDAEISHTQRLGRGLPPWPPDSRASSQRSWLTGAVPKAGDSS
# B1: humanized MAb1 antibody H-1140 (antibody, human IgG2, kappa, V domains shown)
# VH: EVQLVESGGGLVQPGGSLRLSCAASGFTFSTYAMSWVRQAPGKGLEWVATISQGGTYTYYPDSVKGRFTISRDNAKNTLYLQMNSLRAEDTAVYYCARLIYYDYLDYWGQGTLVTVSS
# VL: DIVMTQSPLSLPVTLGEPASISCRSSQSLENSNGNTYLNWYLQKPGQSPQLLIYRVSNRFSGVPDRFSGSGSGTDFTLKISRVEAEDVGVYYCLQVTHVPWTFGPGTKVDIKR
# notes: Human IgG2 / kappa constant regions; also called hMAb1-H2-type heavy chain + hMAb1-L1-type light chain
# What was measured:
# Assay in all cases: flow cytometry on transfected HEK293 cells
# [1] = target: T1, N-terminal FLAG-tagged cynomolgus …
# [2] = target: T2, N-terminal FLAG-tagged cynomolgus …
# [3] = target: T3, mouse ROBO4 (pCI-mROBO4-transfected …)
binder,measurement,setting,value
B1,binding result,[1],binds
same,binding result,[2],binds
same,binding result,[3],no binding (tested: 10 µg/mL (method of 4)-3-2))
